Here are results for nine proteins from US20230240966.

The target in one data set is T1, Suc-AAPA-pNA.
T1 chain: AAPA
The following applies: scale: relative to the substrate with the highest activity.

The target of the next data set is T2, Suc-AAPD-pNA.
T2 chain: AAPD
The following applies: scale: relative to the substrate with the highest activity.

The next data set addresses T3, Suc-AAPE-pNA.
T3 chain: AAPE
The following applies: for relative activity (initial increase in OD405): scale: relative to the substrate with the highest activity.

The next data set has as its target T4, Suc-AAPF-pNA.
T4 chain: AAPF
Particulars: scale: relative to the substrate with the highest activity.

The next data set deals with T5, Suc-AAPI-pNA.
T5 chain: AAPI
The following applies: scale: relative to the substrate with the highest activity.

For a further data set, the target named is T6, Suc-AAPK-pNA.
T6 chain: AAPK
Particulars: scale: relative to the substrate with the highest activity.

The next data set concerns the target T7, Suc-AAPL-pNA.
T7 chain: AAPL
The following applies: scale: relative to the substrate with the highest activity.

A further data set has as its target T8, Suc-AAPM-pNA.
T8 chain: AAPM
Particulars: scale: relative to the substrate with the highest activity.

Another data set concerns the target T9, Suc-AAPR-pNA.
T9 chain: AAPR
The following applies: scale: relative to the substrate with the highest activity.

The target of the next data set is T10, Suc-AAPV-pNA.
T10 chain: AAPV
The following applies: scale: relative to the substrate with the highest activity.

Data set [1] addresses type II (60-70 kDa) keratins of the ORS.

B1: Thermostable alkaline protease BH0855 from Bacillus halodurans (protein)
chain: QTVPWGISFINTQQAHNRGIFGNGARVAVLDTGIASHPDLRIAGGASFISSEPSYHDNNGHGTHVAGTIAALNNSIGVLGVAPSADLYAVKVLDRNGSGSLASVAQGIEWAINNNMHIINMSLGSTSGSSTLELAVNRANNAGILLVGAAGNTGRQGVNYPARYSGVMAVAAVDQNGQRASFSTYGPEIEISAPGVNVNSTYTGNRYVSLSGTSMATPHVAGVAALVKSRYPSYTNNQIRQRINQTATYLGSPSLYGNGLVHAGRATQ
As for B1, the relative activity (initial increase in OD405) stood at 0.088 in the data set with Suc-AAPA-pNA; 0.0053 with Suc-AAPD-pNA; 0.0083 in the data set with Suc-AAPE-pNA; 0.59 with Suc-AAPF-pNA; 0.0005 with Suc-AAPI-pNA; 0.0038 with Suc-AAPK-pNA. For the same protein, the relative activity (initial increase in OD405) is 1 with Suc-AAPL-pNA, 0.85 in the data set with Suc-AAPM-pNA, 0.0069 in the data set with Suc-AAPR-pNA and 0.0008 with Suc-AAPV-pNA. In the data set with Suc-AAPE-pNA, the Glutamyl endopeptidase ratio (GR) came out at 0.008.

B2: Glutamyl endopeptidase II sprE from Streptomyces griseus (protein)
chain: VLGGGAIYGGGSRCSAAFNVTKGGARYFVTAGHCTNISANWSASSGGSVVGVREGTSFPTNDYGIVRYTDGSSPAGTVDLYNGSTQDISSAANAVVGQAIKKSGSTTKVTSGTVTAVNVTVNYGDGPVYNMVRTTACSAGGDSGGAHFAGSVALGIHSGSSGCSGTAGSAIHQPVTEALSAYGVTVY
Turning to B2, the relative activity (initial increase in OD405) with Suc-AAPA-pNA was found to be 0; with Suc-AAPD-pNA, 0.158; with Suc-AAPE-pNA it was 1; with Suc-AAPF-pNA, 0; in the data set with Suc-AAPI-pNA, 0; in the data set with Suc-AAPK-pNA, 0. Further, the relative activity (initial increase in OD405) worked out at 0 with Suc-AAPL-pNA, 0.0001 with Suc-AAPM-pNA, 0.0001 in the data set with Suc-AAPR-pNA and 0 with Suc-AAPV-pNA. In addition, the Glutamyl endopeptidase ratio (GR) in the data set with Suc-AAPE-pNA turned out to be 6.

B3: Serine protease from Nocardiopsis sp NRRL 18262 (protein)
chain: ADIIGGLAYTMGGRCSVGFAATNAAGQPGFVTAGHCGRVGTQVTIGNGRGVFEQSVFPGNDAAFVRGTSNFTLTNLVSRYNTGGYATVAGHNQAPIGSSVCRSGSTTGWHCGTIQARGQSVSYPEGTVTNMTRTTVCAEPGDSGGSYISGTQAQGVTSGGSGNCRTGGTTFYQEVTPMVNSWGVRLRT
B3: the relative activity (initial increase in OD405) came to 0.0001 with Suc-AAPA-pNA; 0.0028 with Suc-AAPD-pNA; 0.0004 in the data set with Suc-AAPE-pNA; 1 in the data set with Suc-AAPF-pNA; 0.0004 in the data set with Suc-AAPI-pNA; 0.0778 with Suc-AAPK-pNA. For the same protein, the relative activity (initial increase in OD405) with Suc-AAPL-pNA amounted to 0.185; with Suc-AAPM-pNA, 0.0003; with Suc-AAPR-pNA, 0.172; with Suc-AAPV-pNA, 0.0121. In addition, the Glutamyl endopeptidase ratio (GR) with Suc-AAPE-pNA was under 0.001.

B4: Subtilisin 309 variant from Bacillus clausii (protein)
chain: AQSVPWGIERVQAPAAHNRGLTGSGVKVAVLDTGISTHPDLRIRGGASFVPGEPSTQDGNGHGTHVAGTIAALDNSIGVLGVAPSEALYAVKVLGASGSGSVSSIAQGLEWAGNNGMHVANLSLGSPSPSATLEQAVNSATSRGVLVVAASGNSGAGSISYPARYANAMAVGATDQNNNRASFSQYGAGLDIVAPGVNILSTWPGSTYASLNGTSMATPHVAGAAALVKQKNPSWSNVQIRNHLKNTATSLGDTWEYGSGLVNAEAATR
As to B4, the relative activity (initial increase in OD405) was found to be 0.0566 with Suc-AAPA-pNA; 0.0001 in the data set with Suc-AAPD-pNA; 0.0025 with Suc-AAPE-pNA; 1 in the data set with Suc-AAPF-pNA; 0.0003 with Suc-AAPI-pNA; 0.0011 in the data set with Suc-AAPK-pNA. The relative activity (initial increase in OD405) with Suc-AAPL-pNA came to 0.17; with Suc-AAPM-pNA it was 0.861; with Suc-AAPR-pNA it was 0.0002; in the data set with Suc-AAPV-pNA, 0.0001. Besides, in the data set with Suc-AAPE-pNA, the Glutamyl endopeptidase ratio (GR) was determined as 0.003.

B5: Lysyl endopeptidase from Achromobacter lyticus (protein)
chain: GVSGSCNIDVVCPEGDGRRDIIRAVGAYSKSGTLACTGSLVNNTANDRKMYFLTAHHCGMGTASTAASIVVYWNYQNSTCRAPNTPASGANGDGSMSQTQSGSTVKATYATSDFTLLELNNAANPAFNLFWAGWDRRDQNYPGAIAIHHPNVAEKRISNSTSPTSFVAWGGGAGTTHLNVQWQPSGGVTEPGSSGSPIYSPEKRVLGQLHGGPSSCSATGTNRSDQYGRVFTSWTGGGAAASRLSDWLDPASTGAQFIDGLDSGGGTP
Consider B5, for which the relative activity (initial increase in OD405) stood at 0.0005 with Suc-AAPA-pNA; 0.0006 with Suc-AAPD-pNA; 0 with Suc-AAPE-pNA; 0.0041 with Suc-AAPF-pNA; 0.0017 with Suc-AAPI-pNA; 1 in the data set with Suc-AAPK-pNA. For the same protein, the relative activity (initial increase in OD405) with Suc-AAPL-pNA worked out at 0.0019; in the data set with Suc-AAPM-pNA it was 0; with Suc-AAPR-pNA, 0.0005; with Suc-AAPV-pNA, 0.0007. In the data set with Suc-AAPE-pNA, the Glutamyl endopeptidase ratio (GR) was under 0.001.

B6: Glutamyl endopeptidase blaSE from Bacillus licheniformis (protein)
chain: SVIGSDDRTRVTNTTAYPYRAIVHISSSIGSCTGWMIGPKTVATAGHCIYDTSSGSFAGTATVSPGRNGTSYPYGSVKSTRYFIPSGWRSGNTNYDYGAIELSEPIGNTVGYFGYSYTTSSLVGTTVTISGYPGDKTAGTQWQHSGPIAISETYKLQYAMDTYGGQSGSPVFEQSSSRTNCSGPCSLAVHTNGVYGGSSYNRGTRITKEVFDNLTNWKNSAQ
For the protein B6, the relative activity (initial increase in OD405) with Suc-AAPA-pNA is 0.0001; with Suc-AAPD-pNA it was 0.002; in the data set with Suc-AAPE-pNA, 1; with Suc-AAPF-pNA, 0.0032; with Suc-AAPI-pNA, 0; in the data set with Suc-AAPK-pNA it was 0.0001. Moreover, the relative activity (initial increase in OD405) in the data set with Suc-AAPL-pNA is 0.0027; in the data set with Suc-AAPM-pNA, 0.0008; with Suc-AAPR-pNA, 0.0001; in the data set with Suc-AAPV-pNA, 0.0001. Besides, the Glutamyl endopeptidase ratio (GR) with Suc-AAPE-pNA was 309. Besides, the “hydrolysis of ORS tissue protein, SDS-PAGE with Coomassie Blue” value in data set [1] was 5 ppm HZ-2 fully degraded type I and type II during the experiment.

B7: Serine protease bppB from Bacillus pumilus JA16 (protein)
chain: VVIGDDGRTKVTNTRVAPYNSIAYITFGGSSCTGTLIAPNKILTNGHCVYNTATRSYSAKGSVYPGMNDSTAVNGSANMTEFYVPSGYINTGASQYDFAVIKTDTNIGNTVGYRSIRQVTNLTGTTIKISGYPGDKMRSTGKVSQWEMSGPVTREDTNLAYYTIDTFSGNSGSAMLDQNQQIVGVHNAGYSNGTINGGPKATAAFVEFINYAKAQ
Turning to B7, the relative activity (initial increase in OD405) in the data set with Suc-AAPA-pNA worked out at 0; with Suc-AAPD-pNA, 0.0043; with Suc-AAPE-pNA, 1; with Suc-AAPF-pNA it was 0; with Suc-AAPI-pNA, 0; with Suc-AAPK-pNA, 0.0003. For the same protein, the relative activity (initial increase in OD405) with Suc-AAPL-pNA is 0.0005; with Suc-AAPM-pNA, 0; with Suc-AAPR-pNA it was 0; with Suc-AAPV-pNA, 0. Moreover, the Glutamyl endopeptidase ratio (GR) with Suc-AAPE-pNA was determined as 234.

B8: Subtilisin Carlsberg from Bacillus licheniformis (protein)
chain: AQTVPYGIPLIKADKVQAQGFKGANVKVAVLDTGIQASHPDLNVVGGASFVAGEAYNTDGNGHGTHVAGTVAALDNTTGVLGVAPSVSLYAVKVLNSSGSGSYSGIVSGIEWATTNGMDVINMSLGGASGSTAMKQAVDNAYARGVVVVAAAGNSGSSGNTNTIGYPAKYDSVIAVGAVDSNSNRASFSSVGAELEVMAPGAGVYSTYPTNTYATLNGTSMASPHVAGAAALILSKHPNLSASQVRNRLSSTATYLGSSFYYGKGLINVEAAAQ
Take B8: the relative activity (initial increase in OD405) with Suc-AAPA-pNA turned out to be 0.0222; with Suc-AAPD-pNA it was 0.0008; with Suc-AAPE-pNA, 0.0033; in the data set with Suc-AAPF-pNA it was 1; with Suc-AAPI-pNA it was 0.0005; with Suc-AAPK-pNA, 0.0155. Moreover, the relative activity (initial increase in OD405) was determined as 0.807 with Suc-AAPL-pNA, 0.282 with Suc-AAPM-pNA, 0.019 in the data set with Suc-AAPR-pNA and 0.0007 with Suc-AAPV-pNA. Also, the Glutamyl endopeptidase ratio (GR) with Suc-AAPE-pNA worked out at 0.003.

B9: Trypsin from Fusarium oxysporum (protein)
chain: IVGGTSASAGDFPFIVSISRNGGPWCGGSLLNANTVLTAAHCVSGYAQSGFQIRAGSLSRTSGGITSSLSSVRVHPSYSGNNNDLAILKLSTSIPSGGNIGYARLAASGSDPVAGSSATVAGWGATSEGGSSTPVNLLKVTVPIVSRATCRAQYGTSAITNQMFCAGVSSGGKDSCQGDSGGPIVDSSNTLIGAVSWGNGCARPNYSGVYASVGALRSFIDTYA
Regarding B9, the relative activity (initial increase in OD405) in the data set with Suc-AAPA-pNA amounted to 0; with Suc-AAPD-pNA it was 0; with Suc-AAPE-pNA, 0.0001; in the data set with Suc-AAPF-pNA, 0.0001; in the data set with Suc-AAPI-pNA it was 0; in the data set with Suc-AAPK-pNA it was 0.84. For the same protein, the relative activity (initial increase in OD405) with Suc-AAPL-pNA was found to be 0; with Suc-AAPM-pNA, 0; in the data set with Suc-AAPR-pNA, 1; with Suc-AAPV-pNA, 0. Also, in the data set with Suc-AAPE-pNA, the Glutamyl endopeptidase ratio (GR) is under 0.001.
